Ends that are not written are not given here.
T1: CRF2R
T1 sequence (Q13324 whole entry, species assumed, looked up): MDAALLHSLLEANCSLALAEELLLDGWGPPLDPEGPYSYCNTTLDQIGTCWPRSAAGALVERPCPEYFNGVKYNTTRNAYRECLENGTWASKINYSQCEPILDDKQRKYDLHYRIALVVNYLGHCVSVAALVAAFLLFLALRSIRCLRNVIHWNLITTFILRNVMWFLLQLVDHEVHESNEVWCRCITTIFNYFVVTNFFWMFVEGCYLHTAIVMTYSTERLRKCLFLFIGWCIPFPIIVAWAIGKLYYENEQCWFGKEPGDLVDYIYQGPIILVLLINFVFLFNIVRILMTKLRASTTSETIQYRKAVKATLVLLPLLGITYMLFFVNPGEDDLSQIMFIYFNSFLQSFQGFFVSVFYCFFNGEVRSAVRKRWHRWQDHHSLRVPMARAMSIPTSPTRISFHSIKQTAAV


Assays:
[1] = target: T1, CRF2R; experiment: cell-based or functional assay
[2] = target: CRF1R; experiment: cell-based or functional assay

CRF2R EC50 [1] [nM]	CRF2R Emax [1] [%]	CRF1R EC50 [2] [nM]	CRF1R Emax [2] [%]	Binder
1.77	100	82.2	99	ZGPPISIDLPFQLLRKMIEIEKQEKEKQQAANNRLLLDTI (C-terminal amide) [SEQ ID NO 84]
2.34	100	11	84	ZGPPISIDLPFYLLRKMIEIEKQEKEKQQAANNRLLLDTI (C-terminal amide) [SEQ ID NO 85]
100	8.1	100	4.6	SQEPPISLDLTIGLLREVLEMTKADQLAQQAHSNRKLLDIA-NH2 [SEQ ID NO 86]
100	14.7	100	5.3	SQEPPISLDLTIHLLREVLEMTKADQLAQQAHSNRKLLDIA-NH2 [SEQ ID NO 87]
100	12.6	100	11.2	SQEPPISLDLTFGLLREVLEMTKADQLAQQAHSNRKLLDIA-NH2 [SEQ ID NO 88]
100	12.2	100	4	SQEPPISLDLPLGLLREVLEMTKADQLAQQAHSNRKLLDIA-NH2 [SEQ ID NO 90]
100	7.1	100	4	SQEPPISLDLPFQLLREVLEMTKADQLAQQAHSNRKLLDIA-NH2 [SEQ ID NO 91]
100	15.8	100	4.6	SQEPPISLDLPTELLREVLEMTKADQLAQQAHSNRKIIDIA-NH2 [SEQ ID NO 92]
100	6.4	100	5	SQEPPISLDLPIGLLREVLEMTKADQLAQQAHSNRKLLDIA-NH2 [SEQ ID NO 93]
100	6.15	100	7.3	SQEPPISLDLPIHLLREVLEMTKADQLAQQAHSNRKLLDIA-NH2 [SEQ ID NO 94]
100	8.25	100	5.55	SQEPPISLDLPLQLLREVLEMTKADQLAQQAHSNRKLLDIA-NH2 [SEQ ID NO 95]
100	12.5	100	16.3	SQEPPISLDLPFYLLREVLEMTKADQLAQQAHSNRKLLDIA-NH2 [SEQ ID NO 96]

The next lines start with the binder.

Binder	CRF2R EC50 [1] [nM]	CRF2R Emax [1] [%]	CRF1R EC50 [2] [nM]	CRF1R Emax [2] [%]
ZGPPISIDLPTRLLRKMIEIEKQEKEKQQAANNRLLLDTI (C-terminal amide) [SEQ ID NO 60]	> 100	44	> 100	8
ZGPPISIDLPTALLRKMIEIEKQEKEKQQAANNRLLLDTI (C-terminal amide) [SEQ ID NO 61]	> 100	89	> 100	12
ZGPPISIDLPGYLLRKMIEIEKQEKEKQQAANNRLLLDTI (C-terminal amide) [SEQ ID NO 63]	67.3	100	73.2	34
ZGPPISIDLPNYLLRKMIEIEKQEKEKQQAANNRLLLDTI (C-terminal amide) [SEQ ID NO 64]	63.3	94	68.9	57
ZGPPISIDLPRYLLRKMIEIEKQEKEKQQAANNRLLLDTI (C-terminal amide) [SEQ ID NO 65]	67.9	64	> 100	16
IVLSLDVPIGLLQELLEMARAEQLAQQAHSNRKLMEII-NH2 [SEQ ID NO 1]	31.5	10	783	64
ZGPPISIDLPFELLRKMIEIEKQEKEKQQAANNRLLLDTI (C-terminal amide) [SEQ ID NO 67]	10	50	44.2	96
ZGPPISIDLPFGLLRKMIEIEKQEKEKQQAANNRLLLDTI (C-terminal amide) [SEQ ID NO 68]	38.5	74	> 100	33
ZGPPISIDLPFHLLRKMIEIEKQEKEKQQAANNRLLLDTI (C-terminal amide) [SEQ ID NO 69]	5.85	81	34.5	88
ZGPPISIDLPTYLLRKMIEIEKQEKEKQQAANNRLLLDTI (C-terminal amide) [SEQ ID NO 70]	18.2	82	> 100	8
ZGPPISIDLPTELLRKMIEIEKQEKEKQQAANNRLLLDTI (C-terminal amide) [SEQ ID NO 71]	94.8	56	> 100	6
ZGPPISIDLPTQLLRKMIEIEKQEKEKQQAANNRLLLDTI (C-terminal amide) [SEQ ID NO 72]	> 100	55	> 100	4
ZGPPISIDLPTGLLRKMIEIEKQEKEKQQAANNRLLLDTI (C-terminal amide) [SEQ ID NO 73]	> 100	11	> 100	11
ZGPPISIDLPTHLLRKMIEIEKQEKEKQQAANNRLLLDTI (C-terminal amide) [SEQ ID NO 74]	55	100	> 100	7
ZGPPISIDLPIGLLRKMIEIEKQEKEKQQAANNRLLLDTI (C-terminal amide) [SEQ ID NO 75]	> 100	52	> 100	5
ZGPPISIDLPIELLRKMIEIEKQEKEKQQAANNRLLLDTI (C-terminal amide) [SEQ ID NO 76]	91.5	76	> 100	7
ZGPPISIDLPIHLLRKMIEIEKQEKEKQQAANNRLLLDTI (C-terminal amide) [SEQ ID NO 77]	43.4	100	> 100	5
ZGPPISIDLPIQLLRKMIEIEKQEKEKQQAANNRLLLDTI (C-terminal amide) [SEQ ID NO 78]	24.6	78	> 100	6
ZGPPISIDLPIYLLRKMIEIEKQEKEKQQAANNRLLLDTI (C-terminal amide) [SEQ ID NO 79]	22.3	100	> 100	8
ZGPPISIDLPLQLLRKMIEIEKQEKEKQQAANNRLLLDTI (C-terminal amide) [SEQ ID NO 80]	6.53	88	> 100	55
ZGPPISIDLPLYLLRKMIEIEKQEKEKQQAANNRLLLDT (C-terminal amide) [SEQ ID NO 81]	4.3	73	60.9	81
ZGPPISIDLPLELLRKMIEIEKQEKEKQQAANNRLLLDTI (C-terminal amide) [SEQ ID NO 82]	10.9	90	96.2	85
ZGPPISIDLPLHLLRKMIEIEKQEKEKQQAANNRLLLDTI (C-terminal amide) [SEQ ID NO 83]	1.91	81	52.2	96
IVLSLDVPGPLLQILLEQTKQEAAREQATTNARILARV-NH2 [SEQ ID NO 5]	100	12	100	9
SQEIVLSLDVPIGLLREVLEMTKADQLAQQAHSNRKLLDIA-NH2 [SEQ ID NO 7]	100	19	100	4
